Measured values as given in the nanobody polyreactivity screen of Harvey et al. (2022).

Test: yeast display, Sf9 membrane polyspecificity reagent, FACS + sequencing; frameworks hold sequencing errors
Summary of the method: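 Sorting gates, low and high (top ~1%), were placed on anti-HA fluorescence to track expression and on streptavidin fluorescence to track reagent binding. A clone's polyreactivity label is taken from the gate it came out of. The reagent was 10% biotinylated, detergent-solubilized Sf9 membrane, applied for 1 hour at 4 °C to galactose-induced yeast display cells.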

Sequence	polyreactivity (PSR sort gate)
QVQLVESGGGLVQAGGRLRLSCAASGLTFASYALGWYRQAPGKERELVARISRSGGSTYYADSVKGRFTISRDNAKNTVYLQMNSLIPEDTAVYYCAADYIFRRYPVGGIYDYDYWGQGTQVTLSS	high polyreactivity
QVQLVESGGALVQAGGSLRLICAASGRIFQRYTKGWYRQAPGKERELVAAITYSGGRTYYADSVKGRFTISRDNAKNTVYLQMNSLKPEDTAVYYCYAAYFNWYTHVWNDYWGQGTQVTVSS	high polyreactivity
QVQLVESGGGLVQAGGSLRISCAASGRIFTRNAMGWYTQAPGNETELVAAITSGGSTNYADSVKGRFTISRDNAKNTVYLQMNSLKPEDTAVYFCYAVYYPYRIWGRVRPSYGYWGQGTQVTVSS	high polyreactivity
QVQLVESGGGLVQAGGSLRISCAASGSIYSAYVMGWYRQAPGKERELVSAITRSGGSTYYADSVKGRFTISRDNAKNTVYFQMNSLKPEDTAVYYCAVDYLLHYYSYIEDYWGQGTQVTVSS	low polyreactivity
QVQLVESGGGLVQAGGSLRLSCAASGITFYYYAMGWYRQAPGKERELVAAISFRGGSTYYADSVKGRFTISRDNAKNTVYLQMNSLIPEDTAVYYCAAETSPSWYTWVTYDYWGQGTQVTVSS	high polyreactivity
QVQLVESGGGLVQAGGSLRLSCAASGRIFGTNAMGWYRQAPRKERELVADITSGGSTNYADSVKGRFTISRDNAKNTVYLQMNSLKPEDTAVYYCAADVIGDLRWYRDEYWGQVTQVTVSS	low polyreactivity
QVQLVESGGGLVQAGGSLRLSCAASGRTSRNNVMGSYRQAPGKERELVAAITKRTDRTYYADSVKGRFTISRDNAKNTVYLQMNSLKPEDTAVYYCAADLSLSTGGRAFPTYGYWGQGTQVTVSS	high polyreactivity
QVQLVESGGGLVQAGGSLRLSCAASGHIFSRYAMGWFRQAPGKERDLVATITNRGGSTYYADSVKGRFTISRDNAKNSVYLQMNSLKPEDTAVYYCARRTKSYVSHPLDYWGQGTQVTVSS	high polyreactivity
QVQLVESGGGLVQAGGSLRLSCSASGFIFTTYAMAWYRQAPGKERELVAAIRNSDGSTYYADSVKGRFTISRDNAKNTVYLQMNSLKPVDTAVYYCAKRYRGEPGRTYGYWGQGTQVTVSS	high polyreactivity
QVQLVESGGGLVQAGGSLRLSCAASGYIFDYYAMGWYRQAPGKESELVAAISSSGGTTYYADSVKGRFTISRDNAKNTFYLQMNSLKPEDTAVYYCAARKSRWHRGYYYWGQGTQVTVSS	high polyreactivity
QVQLVESGGGLVQAGGSLRLSCAASGRTFYRYTMGWYRQAPGTERELVAAISWSGGSTYYADSVKGRFTSSRDNAKNTVYLQMNSLKPEDTAVYYCAKATYWLYVQWYTYGYWGQGTQVTVSS	high polyreactivity
QVQLVESGGGLVQAGGSLRLSCAASGRTIRGNAMGWYRQAPGKERELVAAITRSGASTTYADSVKGRFTISRDNAKNTVYLQMNSLKPEDTAVYYCAARSGAVKYSSYYYWGQGTQVTVSS	high polyreactivity
QVQLVESGGGLVQAGGSLRLSCAASGRTFGVYAMGWYRQAPGKERELVARIRYSGGTTRYADSVKGRFTISRDNAKNTVYLQMNSLKPEDTAVYYCAATNWWGTEYDYWGQGTQVTVSS	high polyreactivity
QVQLVESGGGLVQAGGSLRLSCAASGRTIKYYAMGWYRQAPGKESELVAAISSSGGRTNYADSVKGRFTISRDNANNTVYLQMNSLKPEDTAVYYCAARFYKTYPRMNYWGQGTQVTVSS	high polyreactivity
QVQLVESGGGLVQAGGSLSLSCAASGFTFSVYVLGWYRQAPGKERELVAAISSGGDTTYADSVKGRFTISRDNAKNTVYLQMNSLNPVDTAVYYCAADPGYYSWGSSQDDYWGQGTQVTVSS	low polyreactivity
QVQLVESGGGLVQAGGSLRLSCAASGRTFGGYAMGWYRQAPGKERELVAAISSSGTRTYYAESVKGRFTISRDNAKNTVYLQMNSLKPEDTAVYYCAAYRVIVWYAMDYWGQGTQVTVSS	high polyreactivity
QVQLVESGGGLVQAGGSLRLSCAASGSTFWDYAMGWYRPAPGKERELVAAISTSGGSTYYADSVKGRFTISRDNAKNTVYLQMNSLKPEDPAVYYFAAGRVRRRVWYNYWGQGTQVTVSS	high polyreactivity
QVQLVESGGGLVQAGGSLRLSCAASGRIFVTNAMGWYRQAPGKERELVAAISYRGGRTYYADSVKGRFTISRDNAKNTVYLQMNSLKPEDTAVYYCNAVTRGPFDYWGQGTQVTVSS	high polyreactivity
QVQLVESAGGLVQAGGSLRIRCAASVSTFGVYALGWYRQAPGKERELVAAISSSTGSTYYADSVKGRFTISRDNAKNTVYLQMNSLKPEDTGVYYCAAAGYGKVRGDYWGLGTQVTVSS	low polyreactivity
QVQLEESGGGLVQAGGSLRLSCAASGSTFYRYTMGWYRQAPGTERELVAAISRSGGRTYYADSVKGRFTISRDNAKNTVYLQMNSLKPEDTAVYYCAAARRYGRYFGYPMEYWGQGTQVTVSS	high polyreactivity
QVQLVESGGGLVQAGGSLRLSCADSGSILVAKGMGWYRQAPGKESELVAGITTRGGNTYYADSVKGRFTISRDNAKNTVYLQMNSLKPEDTAVYYCAADHLSYRRRYEYWGQGTQVTVSS	low polyreactivity
QVQLVESGGGLVQAGGSLRLSCAASGRTFVNYALGWYRQAPWKERELVAGISSDGSTYYADSEKGRFTISRDNAKNTVYLQMNSLKPEDTAVYYCATEIRITGLYRYDYWGQGTQVTVSS	low polyreactivity

Sequence	polyreactivity (PSR sort gate)
QVQLVESGGGLVQAGGSLRLSCAASGSTFWLYAMGWYRQAPGKERELVAAIRSGDRTNYADSEKGRFTISRDNAKNTVYLQMNSLKPEDTAVYYCAAVAYLNWTPHYYWGQRTQVTVSS	low polyreactivity
QVQLVESGGGLVQAEGSLRLSCAASGRTFRPYALGWYRQAPGKERELVAVITSGGRTDYADSVKGRFTISRDNAKNTVYLQMNSLKPEDTAVYYCNAGAVYWGYSRGWYERDYWGQGTQVTVSS	high polyreactivity
QVQLVESAGGLVQAGGSHRLSCAPSGRIFGGNAMGWYRRAPGKERELVAGISRRGGSTYYADSVKGRFTITRDNAKNTVHLQMNSLKPEDTAVYYCNAYYRYSVFAEKYDYWGEGTQVTVSS	high polyreactivity
QVQLVESGGGLVQAGGSLRLICAASGRIFRINAMGWYRQAPGKEREFVAAISWRSGSTYYADSVKGRFTISRDNAKNSVYLQMNSLKPEDTAVYYCAAKLYGYRSGYYYWGQGTQVTVSS	high polyreactivity
QVQLVESGGGLVQAGGSLRLSCAASRIIFYAYAMRWYRQAPGNERELVAAMSWSGGSTYYADSVKGRYTISRDNAKNTFYLQMNSLKPEDTAVYYCAAYFNIYGLEYDYWGQGTQVTVSS	high polyreactivity
QVQLVESGGGLVQAGGSLRLSCAASGSTFVWNAMGWSRQAPGKERQLVAAIDSGGSTNYADSVKGRFTISRDNAKNTVYLQMNSLKPEDTAVYYCATDQGYRYLKIYVYGDAFDYWGQGTQVTVSS	low polyreactivity
QVHLVESGGGLVQAGGSLRLICAASGFIFRQYAMGWYRQAPGKERELVAAISYRGASTYYADSVKGRFTISRDNAKNTVYLQMNSLKPEDTAVYYCADRYYNPWARVSGYDYWGQGTQVTVSS	high polyreactivity
QVQLVESGGGLVQAGRSLRLSCAATGLIFLLNAMGWYRQAPGKERELVAVITRVGDTNYADSVKGRFTISRDNAKNTVYLQMNSLKPEDTAVYSCAATSLTYEGYYWRQGTQVTVSS	low polyreactivity
QVQLVESGGGLVQVGGILLLSCAASGFTFYDYAMGWYRQAPGKERELVAAISRGGSTYYADSVKGRFTISRDNAKNTVNLQMNSLKPEDTAVYYCNARPTRIYHGMVYWGQGTQVTVSS	low polyreactivity
QVQLVESGGGLVQAGGSLRLSCAASGRIFLYYAMGWYRQAPGKERELVAAITRSGGTTYYADSVKGRFTISRDNAKNTVYLQMNSLKPEDTAVYYCAALGQYSRADYEYWGQGTQVTVSS	high polyreactivity
QVPLVESGGGLVQAGGSLRLSCAASGSIFNIYALGWYRPAPGKVWELVAGISWDSGSTFYADSVKGRVTISRDNAKNTVYLQMNSLKPEDTAGYYCNVVYETYCDEFDYWGQGTQVTVSS	high polyreactivity
QVQLVESGGGLVQAGGSLRLSCAASGIIFTLYAMGWYRQAPGKERELVATISTGGGTYYADSVKGRFTISRDNAKNTVYLQMNSLKPEDTAVYYCNAVKLLGTRGYGYWGQGTQVTVSS	high polyreactivity
QVHLVESGGGLVQAGGSLRLSCAASGITLRVYVMGWYRQAPGKERELVAAITSRGDRTYYADSVKGRFTISRDNAKNTVYLQMNSLKPEDTAVYYCAASRWRDAGHSYDYWGQGTQVTVSS	high polyreactivity
QVQLVESGGGLVQAGGSLRLSCAASGSTFSSYVMGWYRQAPGKERELVAGITRGGRTYYADSVKGRFTISRDNAKNTGYLQMNSLKPEDTAVYYCAKDQGGVHELDYWGQGTQVTVSS	low polyreactivity
QVQLVESGGGLVQAGGSLRLSCAASGLTFGRYAMGWYRQAPGKERELVAAITRSGGRTYYADSVKGRFTISRDNAKNTVYLQMNSLKPEDTAVYYCNKLSHLGAPGDPDDYWGQGTQVTVSS	high polyreactivity
QVQLVESCRGLVQAGGSLRLICAASGLTFRYYSMGWYRQAPGKERELVASISWCGASTYYADSVKGRFTISRDNAKNTVYLQMISLKPEDTAVYYCNAGYSGSYDYWGQGTQVTVSS	high polyreactivity
QVQLVESGGGLVQAGGSLRLSCAASGSTFRSYAMGWYRQSPGKERELVAAISTRGGSTYYADSVKGRFTISRDNAKNTVYLQMNSLKPEDTAVYYCAVEIVWAYGPTDYYYWGQGTQVTVSS	high polyreactivity
QVQLVESGGGIVQEGGSLRLSCAASGSTFDQNGMGGYRQAPGKERELVATISTSAGTYYADSVKGRFTISRDNAKNTVYLQMNSLKPEDTAVYYCNADLGGQYKEFDYWGQGTQVTVSS	low polyreactivity
QVQLVDSGGGLVQAGGSLRISCAASGLIFSKNVMGWYRQAPGKEREFVAAISQRGGSTYYADSVKGRFTISRDIAKNTVYLQMNSLKPEDTAVYYCAADNTVSHEDYWGQGTQVTVSS	high polyreactivity
QVQLVESGGGLVQAGGSLRLSCAASGSIFRGYALGWYRQAPGKERALVAAITKRGGNTYYADSVKGRFTISRDHAKNTVYLQMNSLKPEDTAVYYCAKAGWGKWVYAQMVYWGQGTQVTVSS	high polyreactivity
QVQLVESGGGLVQAGGSLRLSCAASGITFTGYAMGWYRQAPGKERELVAVISETGGSTYADSVKGRFTISRDNAKNTVYLQMNSLKREDTAVYYCAARLWWPYSTAWAKMDYWGQGTQVTVSS	low polyreactivity
